In patent publication US20140348819A1, “Methods of Treating Cancer” (Dana-Farber Cancer Institute, Inc., priority 2011, published 2014):

Test system: six V600E BRAF melanoma cell lines
Assay: Screening of recombinant RTK ligands for ability to confer resistance to BRAFi (PLX4720) or MEKi (PD184352) (Table 4)
Type: cell-based, human
Parameters: ability of recombinant RTK ligand to confer resistance / ability of recombinant RTK ligand to confer resistance (screening value): scale not given here
Experimental: HGF is the only one that can substantially confer drug resistance to the cell lines.
The complexity of the tumor microenvironment is much greater than an in vitro co-culture system. Therefore, the inventors explored whether the activation of other RTKs could result in a similar resistance as that observed with the activation of MET. To this end, six V600E BRAF melanoma cell lines were tested for their resistance to either BRAFi (PLX4720) or MEKi (PD184352) after the addition of 22 RTK ligands that have the potential of activating almost all known RTKs. […] The activation of a selected subset of these RTKs was confirmed by western blotting and by high throughput tyrosine kinase phosphorylation profiling.

B1: VEGF-C (protein, UniProt P49767 112-227, looked up)
Vascular endothelial growth …: AHYNTEILKSIDNEWRKTQCMPREVCIDVGKEFGVATNTFFKPPCVSVYRCGGCCNSEGLQCMNTSTSYLSKTLFEITVPLSQGPKPVTISFANHTSCRCMSKLDVYRQVHSIIRR
- ability of recombinant RTK ligand to confer resistance (A2058, PD184352 - 1 uM, ligand 1.6 ng/ml): 1.01
- ability of recombinant RTK ligand to confer resistance (A2058, PD184352 - 1 uM, ligand 6.25 ng/ml): 1.02
- ability of recombinant RTK ligand to confer resistance (A2058, PD184352 - 1 uM, ligand 25 ng/ml): 1.01
- ability of recombinant RTK ligand to confer resistance (A2058, PD184352 - 1 uM, ligand 100 ng/ml): 0.99
- ability of recombinant RTK ligand to confer resistance (A2058, PD184352 - 1 uM, ligand 400 ng/ml): 0.94
- ability of recombinant RTK ligand to confer resistance (A2058, PLX4720 - 2 uM, ligand 1.6 ng/ml): 1.03
- ability of recombinant RTK ligand to confer resistance (A2058, PLX4720 - 2 uM, ligand 6.25 ng/ml): 1.04
- ability of recombinant RTK ligand to confer resistance (A2058, PLX4720 - 2 uM, ligand 25 ng/ml): 1.05
- ability of recombinant RTK ligand to confer resistance (A2058, PLX4720 - 2 uM, ligand 100 ng/ml): 1.04
- ability of recombinant RTK ligand to confer resistance (A2058, PLX4720 - 2 uM, ligand 400 ng/ml): 1.02
- ability of recombinant RTK ligand to confer resistance (C32, PD184352 - 1 uM, ligand 1.6 ng/ml): 1.06
- ability of recombinant RTK ligand to confer resistance (C32, PD184352 - 1 uM, ligand 6.25 ng/ml): 1.03
- ability of recombinant RTK ligand to confer resistance (C32, PD184352 - 1 uM, ligand 25 ng/ml): 1.16
- ability of recombinant RTK ligand to confer resistance (C32, PD184352 - 1 uM, ligand 100 ng/ml): 1.00
- ability of recombinant RTK ligand to confer resistance (C32, PD184352 - 1 uM, ligand 400 ng/ml): 1.07
- ability of recombinant RTK ligand to confer resistance (C32, PLX4720 - 2 uM, ligand 1.6 ng/ml): 0.94
- ability of recombinant RTK ligand to confer resistance (C32, PLX4720 - 2 uM, ligand 6.25 ng/ml): 1.09
- ability of recombinant RTK ligand to confer resistance (C32, PLX4720 - 2 uM, ligand 25 ng/ml): 1.06
- ability of recombinant RTK ligand to confer resistance (C32, PLX4720 - 2 uM, ligand 100 ng/ml): 1.08
- ability of recombinant RTK ligand to confer resistance (C32, PLX4720 - 2 uM, ligand 400 ng/ml): 1.08
- ability of recombinant RTK ligand to confer resistance (Colo 829, PD184352 - 1 uM, ligand 1.6 ng/ml): 0.97
- ability of recombinant RTK ligand to confer resistance (Colo 829, PD184352 - 1 uM, ligand 6.25 ng/ml): 1.02
- ability of recombinant RTK ligand to confer resistance (Colo 829, PD184352 - 1 uM, ligand 25 ng/ml): 0.94
- ability of recombinant RTK ligand to confer resistance (Colo 829, PD184352 - 1 uM, ligand 100 ng/ml): 0.95
- ability of recombinant RTK ligand to confer resistance (Colo 829, PD184352 - 1 uM, ligand 400 ng/ml): 0.90
- ability of recombinant RTK ligand to confer resistance (Colo 829, PLX4720 - 2 uM, ligand 1.6 ng/ml): 0.99
- ability of recombinant RTK ligand to confer resistance (Colo 829, PLX4720 - 2 uM, ligand 6.25 ng/ml): 1.00
- ability of recombinant RTK ligand to confer resistance (Colo 829, PLX4720 - 2 uM, ligand 25 ng/ml): 0.92
- ability of recombinant RTK ligand to confer resistance (Colo 829, PLX4720 - 2 uM, ligand 100 ng/ml): 0.95
- ability of recombinant RTK ligand to confer resistance (Colo 829, PLX4720 - 2 uM, ligand 400 ng/ml): 0.90
- ability of recombinant RTK ligand to confer resistance (G-361, PD184352 - 1 uM, ligand 1.6 ng/ml): 0.97
- ability of recombinant RTK ligand to confer resistance (G-361, PD184352 - 1 uM, ligand 6.25 ng/ml): 0.97
- ability of recombinant RTK ligand to confer resistance (G-361, PD184352 - 1 uM, ligand 25 ng/ml): 0.91
- ability of recombinant RTK ligand to confer resistance (G-361, PD184352 - 1 uM, ligand 100 ng/ml): 0.90
- ability of recombinant RTK ligand to confer resistance (G-361, PD184352 - 1 uM, ligand 400 ng/ml): 0.89
- ability of recombinant RTK ligand to confer resistance (G-361, PLX4720 - 2 uM, ligand 1.6 ng/ml): 1.01
- ability of recombinant RTK ligand to confer resistance (G-361, PLX4720 - 2 uM, ligand 6.25 ng/ml): 0.97
- ability of recombinant RTK ligand to confer resistance (G-361, PLX4720 - 2 uM, ligand 25 ng/ml): 0.92
- ability of recombinant RTK ligand to confer resistance (G-361, PLX4720 - 2 uM, ligand 100 ng/ml): 0.88
- ability of recombinant RTK ligand to confer resistance (G-361, PLX4720 - 2 uM, ligand 400 ng/ml): 0.85
- ability of recombinant RTK ligand to confer resistance (SK-MEL-5, PD184352 - 1 uM, ligand 1.6 ng/ml): 0.97
- ability of recombinant RTK ligand to confer resistance (SK-MEL-5, PD184352 - 1 uM, ligand 6.25 ng/ml): 0.36
- ability of recombinant RTK ligand to confer resistance (SK-MEL-5, PD184352 - 1 uM, ligand 25 ng/ml): 0.96
- ability of recombinant RTK ligand to confer resistance (SK-MEL-5, PD184352 - 1 uM, ligand 100 ng/ml): 0.98
- ability of recombinant RTK ligand to confer resistance (SK-MEL-5, PD184352 - 1 uM, ligand 400 ng/ml): 0.33
- ability of recombinant RTK ligand to confer resistance (SK-MEL-5, PLX4720 - 2 uM, ligand 1.6 ng/ml): 0.95
- ability of recombinant RTK ligand to confer resistance (SK-MEL-5, PLX4720 - 2 uM, ligand 6.25 ng/ml): 0.83
- ability of recombinant RTK ligand to confer resistance (SK-MEL-5, PLX4720 - 2 uM, ligand 25 ng/ml): 0.87
- ability of recombinant RTK ligand to confer resistance (SK-MEL-5, PLX4720 - 2 uM, ligand 100 ng/ml): 0.92
- ability of recombinant RTK ligand to confer resistance (SK-MEL-5, PLX4720 - 2 uM, ligand 400 ng/ml): 0.85
- ability of recombinant RTK ligand to confer resistance (SK-MEL-28, PD184352 - 1 uM, ligand 1.6 ng/ml): 1.09
- ability of recombinant RTK ligand to confer resistance (SK-MEL-28, PD184352 - 1 uM, ligand 6.25 ng/ml): 0.95
- ability of recombinant RTK ligand to confer resistance (SK-MEL-28, PD184352 - 1 uM, ligand 25 ng/ml): 0.90
- ability of recombinant RTK ligand to confer resistance (SK-MEL-28, PD184352 - 1 uM, ligand 100 ng/ml): 1.08
- ability of recombinant RTK ligand to confer resistance (SK-MEL-28, PD184352 - 1 uM, ligand 400 ng/ml): 0.85
- ability of recombinant RTK ligand to confer resistance (SK-MEL-28, PLX4720 - 2 uM, ligand 1.6 ng/ml): 1.05
- ability of recombinant RTK ligand to confer resistance (SK-MEL-28, PLX4720 - 2 uM, ligand 6.25 ng/ml): 0.94
- ability of recombinant RTK ligand to confer resistance (SK-MEL-28, PLX4720 - 2 uM, ligand 25 ng/ml): 0.98
- ability of recombinant RTK ligand to confer resistance (SK-MEL-28, PLX4720 - 2 uM, ligand 100 ng/ml): 1.01
- ability of recombinant RTK ligand to confer resistance (SK-MEL-28, PLX4720 - 2 uM, ligand 400 ng/ml): 0.89
